Results as given in paper PMC6561242.

Biological target: α-synuclein 1–140 tagged with the C-terminal Venus fragment (UniProt P37840)
Assay: split reporter

Chain of VAMP2 tagged with the N-terminal Venus fragment (natural protein) (P63027 2-116): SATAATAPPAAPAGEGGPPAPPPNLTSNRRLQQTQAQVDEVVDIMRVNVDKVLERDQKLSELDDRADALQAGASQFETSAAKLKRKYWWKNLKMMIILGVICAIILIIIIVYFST

Venus complementation fluorescence at boutons relative to α-syn 1–140: 1
Venus complementation fluorescence relative to α-syn 1–140: 1
Substance: VAMP2 tagged with the N-terminal Venus fragment (natural protein)
